From the DeepSol protein solubility set

Assay: soluble on expression in E. coli; label from the status in PepcDB or PDB records

MSLKQVPDVNKIKFDPETKRIVRKDVPLMMNSFDKKAVEEAIRISERHGWETCVATMGPPQAVEVINEALRMGIERGYLITDPSLANSDTLITSRVLAAFALRYGPDLVLMGKYSLDGETSQVPAEVSALMGWPYVPSVSKIMISDHLELEQELENGIYTCSAPLPCVLSLSEKINRARAIKPDTPQMYDRIVQIDTKWLGLDLDGGRDSPTAVIGTEQVNSNRSPVFIDPGADMYRQIMEIIRVSRKNDRMKTIDLNYAEFRGEAWAIAIDSENASLEIASKVADIASENSFYVRVIGNVEFSDPRSVPAHHVDIISGTDAVGLSYYIVDEIKKHSPEFLIFPSTVTGRQISSLVAARFGLGLTADCVDLSYGDRGLLQYKPAFGGGVIAEIISRKKPAMATARPGMFRKVKVNIEPSISHMSLDPAGRIRYGQFIPVPQEFKPLEGSRLILGIGRGLKRKEDLPKIMELASMLGASVGGSRPIVDMNYIPRQQQIGLTGSAVSPDVYIALGISGQDNHIVGLRYARKIIAVNTDRNAPIFRYSDYGIIMDLMQFVEGFLHFLNAEGHHHHHH
soluble on expression in E. coli: not soluble

MAHHHHHHMYAPFAAQEGNGGMFDFFFSAAASETLCASSAGSNSNNTGIGHGGGEAANGFNAASAGPLVENNNSNDDRVGRLNFDFASFFFQGGQSGAYDDSGLDAAGRGDDGSGADARRSEHYIQRGSADAADSTGKGVLPALGFFFPEDQVAPAAAGGSLILPPTSWCVESAAGADNRYSPPQVQPQNPAAVRETAASLKGDEAAHTVAPPGAALTVLKSDPTHIAPVDQTLVQRLPCEHASSSAMDHECSLAAALAAAPSSLGLLSDEESQRTTVPLSRTSDAEEAKCDETPTRLVAGNSCPEPEARDSSVAEGVAEEDAMPAPTHSRQPPPRVPVVSLPRSSHPPGAAPAGAVVTPTPPSPRQPPAPLTVSTSTPYRPEVPLLIGPAGHDATSVALSKAIGEAEEVWAHRLDMVPITCPERRDAEMGMSCSGFTPSSSSDAVFLAEVAQLQQQTARLTEESARSVTSLQVLTSDLLRILGPHAALSSFAGEQYAGTPLVHLPWALIAVLEGLLNDDADAEEKAEGQLVAPRPSSEGVESGSSGVHDA
soluble on expression in E. coli: not soluble

MAHHHHHHMAVESRSRVTSKLVKAHRAMLNSVTQEDLKVDRLPGADYPNPSKKYSSRTEFRDKTDYIMYNPRPRDEPSSENPVSVSPLLCELAAARSRIHFNPTETTIGIVTCGGICPGLNDVIRSITLTGINVYNVKRVIGFRFGYWGLSKKGSQTAIELHRGRVTNIHHYGGTILGSSRGPQDPKEMVDTLERLGVNILFTVGGDGTQRGALVISQEAKRRGVDISVFGVPKTIDNDLSFSHRTFGFQTAVEKAVQAIRAAYAEAVSANYGVGVVKLMGRDSGFIAAQAAVASAQANICLVPENPISEQEVMSLLERRFCHSRSCVIIVAEGFGQDWGRGSGGYDASGNKKLIDIGVILTEKVKAFLKANKSRYPDSTVKYIDPSYMIRACPPSANDALFCATLATLAVHEAMAGATGCIIAMRHNNYILVPIKVATSVRRVLDLRGQLWRQVREITVDLGSDVRLARKLEIRRELEAINRNRDRLHEELAKL
soluble on expression in E. coli: not soluble

MAKIGFVSLGCPKALVDSEQILSRLKALGYETSPSYEEAELVIVNTCGFINEAVEESLEAIGEALKENGKVVVTGCLGARPEKIRERHPQVLAVTGPGEVERVLEAVQEVLPAPRDPFLDLIPPQVKLTPRHYAYVKLSEGCDHRCSFCIIPKLRGRLRSRDAADVLAEAARLVATGTKELLLVAQDLSAYGVDLGHRESLWGDRPVRAELKDLLTHMAELGVWIRLHYVYPYPHVKDLLPLMAEGKVLPYLDVPLQHASPRILRLMRRPGGYESHLKTLKAWREVVPELALRSTFIVGFPGETEEDFQILLDFLEEAELDRVGVFAYSPVEGAEANRLPDPVPEEVKEERKARLLEVQARVSLRKNQRFVGKTLEVLVDELPEPGLAVGRTYRDAPGVDGVVYVETDGTVRVGERIPVRILRADTYDLHGVQAAAALEHHHHHH
soluble on expression in E. coli: soluble

SLMVLAMESRVAPEIPGLIQPGNVTQDLKMMVCKLLNSPKPTKTFPGSQPVSFQHSDVEEKLLAHDYYVCEKTDGLRVLMFIVINPVTGEQGCFMIDRENNYYLVNGFRFPRLPQKKKEELLETLQDGTLLDGELVIQTNPMTKLQELRYLMFDCLAINGRCLTQSPTSSRLAHLGKEFFKPYFDLRAAYPNRCTTFPFKISMKHMDFSYQLVKVAKSLDKLPHLSDGLIFTPVKAPYTAGGKDSLLLKWKPEQENTVDFKLILDIPMVEDPSLPKDDRNRWYYNYDVKPVFSLYVWQGGADVNSRLKHFDQPFDRKEFEILERTYRKFAELSVSDEEWQNLKNLEQPLNGRIVECAKNQETGAWEMLRFRDDKLNGNHTSVVQKVLESINDSVSLEDLEEIVGDIKRCWDERRANMAGGSGRPLPSQSQNATLSTSKPVHSQPPSNDKEPKYVDEDDWSD
soluble on expression in E. coli: soluble

SVICCAAVNCSNRQGKGEKRAVSFHRFPLKDSKRLIQWLKAVQRDNWTPTKYSFLCSEHFTKDSFSKRLEDQHRLLKPTAVPSIFHLTEKKRGAGGHGRTRRKDASKATGGVRGHSSAATGRGAAGWSPSSSGNPMAKPESRRLKQAALQGEATPRAAQEAASQEQAQQALERTPGDGLATMVAGSQGKAEASATDAGDESATSSIEGGVTDKSGISMDDFTPPGSGACKFIGSLHSYSFSSKHTRERPSVPREPIDRKRLKKDVEPSCSGSSLGPDKGLAQSPPSSSLTATPQKPSQSPSAPPADVTPKPATEAVQSEHSDASPMSINEVILSASGACKLIDSLHSYCFSSRQNKSQVCCLREQVEKKNGELKSLRQRVSRSDSQVRKLQEKLDELRRVSVPYPSSLLSPSREPPKMNPVVEPLSWMLGTWLSDPPGAGTYPTLQPFQYLEEVHISHVGQPMLNFSFNSFHPDTRKPMHRECGFIRLKPDTNKVAFVSAQNTGVVEVEEGEVNGQELCIASHSIARISFAKEPHVEQITRKFRLNSEGKLEQTVSMATTTQPMTQHLHVTYKKVTP
soluble on expression in E. coli: soluble

MLTIARRFSGSSICRKQITVGSNNIQVIKNIQDREYEAIWKTIGSTRSDLKKDDIKKFKEAWGNDYHQTLTFLKDSDRLIASNSHVVFRPLKDSKGLENLVFRGNLWISPDVRGSEIMDITDKQSYDVGFSVGNNSMAYATKKTMDQYKNLTGSMDHLHKYYVSNYDFGDLCIPKDLDTSGIVVKNARDVPDTDILKYDAKVFKYERSKYVLGQIREDFGRVAYNEKGDVIGIGAISVYPSGECAITPMYADDIRIARTILKNILEEMTLDAEKYWRLQIRSHDQHTGSYGWIRPFLSTMTHRSEVCTLMCDHKEKGMDFSKVYSTFHADNCPI
soluble on expression in E. coli: not soluble

MTVAKAIFIKCGNLGTSMMMDMLLDERADREDVEFRVVGTSVKMDPECVEAAVEMALDIAEDFEPDFIVYGGPNPAAPGPSKAREMLADSEYPAVIIGDAPGLKVKDEMEEQGLGYILVKPDAMLGARREFLDPVEMAIYNADLMKVLAATGVFRVVQEAFDELIEKAKEDEISENDLPKLVIDRNTLLEREEFENPYAMVKAMAALEIAENVADVSVEGCFVEQDKERYVPIVASAHEMMRKAAELADEARELEKSNDAVLRTPHAPDGKVLSKRKFMEDPE
soluble on expression in E. coli: soluble

MRFEDIGISKVDKVCLVDRLGCQENLVGTVHVTTTHIIFRAENGSKELWLATGLISSVEKGTLTAAGCMLVIRCKHFQVITLLISRDKSCQDLYETLQRAAKPVSVNVTELLAFENREPVEDVRGWRRLDWNSEMTRQGITKSQWTESNINEGYTICDTYPNKLWFPTAASTSVLLGSCKFRSRGRLPVLTYFHQQTEAALCRCAQPLTGFSARCVEDEKLMELVGKANTNSDNLFLVDTRPRVNAMVNKVQGKGFEDERNYSNMRFHFFDIENIHVMRASQARLLDAVTKCRDVTEYWKTLEASGWLKHVRSVVECSLFLAESISRGTSCVVHCSDGWDRTSQVVALCQLLLDPYYRTIHGFQVLIEKDWLGFGHKFDDRCGHVGALNDEAGKEVSPIFTQWLDCIWQIMQQKPRAFQFNERYLIEMHEHVYSCQFGTFIGNCDKDRRDLNLSKRTKSLWTWMDARHDDYMNPFYSPTAHVALLDLDTRAARFTVWTAMYNRFDNGLQPRERLEDLTMAAMEHVGVLESHVAQLRTRLAELKTQQNQQITSTNTPTNMVDSGMSSATDDLKNLSLSHPLDPLSSTLPILERATSQESGVMDSSLYYPDEALTKYSLKWQPLRGADRCSNPACRGEFSSTIERRIHCHLCGMIFCRRCLKVSADERERVCDKCKTD
soluble on expression in E. coli: not soluble
